{
  "source": "the DeepSol protein solubility set",
  "data": [
    {"test": "soluble on expression in E. coli; label from the status in PepcDB or PDB records", "values": [
      {"sequence": "MGSDKIHHHHHHMALKDYAIEKEKVKKFLQEFYYENELGKKQFKYGTQLVHLAHREQVALYVDLDDIAEDDPELVDSICENAKRYSRLFGDVVQELLPEYKEKEVVNKDVLDVYIEHRLMMEQRSRDPGAVRNPQNQYPSELMRRFELYFRGPSSSKPRVIREVRADSVGKLLTVRGIVTRVSEVKPRMVVATYTCDQCGAETYQPIQSPTFMPLIMCPSQECQTNRSGGRLYLQTRGSKFVKFQEMKIQEHSDQVPVGNIPRSITVVLEGENTRIAQPGDHVSVTGIFLPVLRTGFQQMAQGLLSETYLEAHWIVKMTKSDDDVSGAGELSSEELKQIAEEDFYEKLAASIAPEIYGHEDVKKALLLLLVGGVDQSPQGMKIRGNIHICLMGDPGVAKSQLLSYIDRLAPRSQYTTGRGSSGVGLTAAVLRDSVSGELTLEGGALVLADQGVCCIDEFDKMAEADRTAIHEVMEQQTISIAKAGILTTLNARCSILAAANPAYGRYNPRRSLEQNVQLPAALLSRFDLLWLIQDRPDRDNDLRLAQHITYVHQHSRQPPAQFEPLDMKLMRRYIAMCHERQPTVPESLADYITAAYVEMRREARASKDATYTSARTLLAILRLSTALARLRMVDIVEKEDVNEAIRLMEMSKDSLLGEKGQTARTQRPADVIFATIRELVSRGRSVHFSEAEQRCISRGFTPAQFQAALDEYEELNVWQVNTSRTRITFV", "soluble on expression in E. coli": "not soluble"},
      {"sequence": "MEETRPIDGLTDEDIREILTRYKKIALVGASPKPERDANIVMKYLLEHGYDVYPVNPKYEEVLGRKCYPSVLDIPDKIEVVDLFVKPKLTMEYVEQAIKKGAKVVWFQYNTYNREASKKADEAGLIIVANRCMMREHERLLGEK", "soluble on expression in E. coli": "soluble"},
      {"sequence": "MGSDKIHHHHHHEDDLSAKAWLKNMSQAMHDKQYKTSIIQLQADHIRPLVYIHGIVDNKEVALLEYLNGPPKNAVRVGNTVTFIEHDQPAYSVVAPRIQGIWPAALAGDLSQLEKGYQFVIGGRGRIAGRPGQMIRLLANDDNRYDAQVWIDMDTYLPLRFDSLNKEKQLLEQTMVIELIELTEPANILIEAAKQEWPAVMNQAERTDGKNWQFTWLPEGFDVVVRDHHRLIGIHEPVEYVALTDGLANISVYVARAGENPMPNELLIRNGLSMVVVKVGTLEVVAIGKVPSETLDKIANSLVLK", "soluble on expression in E. coli": "not soluble"},
      {"sequence": "MVNGDGNPREVIEDLAANNPAIQNIRLRHENKDLKARLENAMEVAGRDFKRAEELEKAKQALEDQRKDLETKLKELQQDYDLAKESTSWDRQRLEKELEEKKEALELAIDQASRDYHRATALEKELEEKKKALELAIDQASQDYNRANVLEKELE", "soluble on expression in E. coli": "soluble"},
      {"sequence": "MSENPLLERARRFLSALRHCQVLGLTVEAADEKGLTLRLPYSQAIIGNPESGVVHGGAITTLMDTTCGISTVCVLPDFEICPTLDLRIDYMHPAEPHKDVYGFAECYRVTPNVIFTRGFAYQDDPGQPIAHVVGAFMRMGLEHHHHHH", "soluble on expression in E. coli": "soluble"},
      {"sequence": "MLLAGLLASVEHGLNRVLRLDSTALPRLAALEGKVIEIDCRQPALQVFILPDEEGLMLAAHWQGEVDCRLRAPAGSLAQLALVKDKTAVLHSPQVELHGDSAVLLDLFGVLQDLELDWEHELQRWLGPVATAMLAGHIRLRARWTRQGLARFSQNLSEYLAEESRTLVGKREAEAAFSELDALKLDTERLEARLKRLSRSLDTSDNA", "soluble on expression in E. coli": "not soluble"},
      {"sequence": "MSLKLLIFEYATASGIDDPEIFLEGRSMLEALLTDFRDFDVEFLLSERFADMDIGAGFRPSIIGDLDEWLQENLEGFDACIFIAAEEGMELYRLTRIVEESGVLLLGSSGDAVRTCSDKRLTYRALDGRVPLIGTYEPEEIVDVPSRLIVKPADGVACQGIRILEPGDEPDLSGDMIIQDFIEGESVSVSLLSNGEKALPLSLNRQDIIMAGSELEYNGGSAPVDHEMREDAFTVARRAVESITGLRGYVGVDLILADEPYVVEINSRITTPYIGLRRVTEANLGHLILESVLGRLPSGVKFNGTASFRKGIDGMVVEVTEGFRGYEGHHHHHH", "soluble on expression in E. coli": "soluble"},
      {"sequence": "MAHHHHHHMHMNNYHYNNYNVNFNPYNCGVVQESEKKNVGNVNNKVVLQKNYSNEYEMKYKEENKNNKINYLENLLNEPTAKEKKIKEEKTNILSIIEAPTVIEEMRIKKFQKKDDSVKIICPYLTKKVCQKHNKECNKVHFKKIISEHTDVSLGDCSYLDTCRHIETCKFVHYAVDKDDQQMNMNTQENLSQSKLSFSSNIKENVYGPQWIRCDLRNFDLSIFNKYVSVVMADPPWDIHMDLPYGTMTDNEMKLLPVQLIQDEGMIFLWVTGRAMELARECLQIWGYKRVEEILWVKTNHLQRIIRTGRTGHWLNHSKEHCLVGIKGNPIINRNIDCNVIVSEVRETSRKPDEIYSLIERLCPQNLKIELFGRPHNCRSNWITLGNQLNGVVLHHPQIKERYNKVATQFNLPLCEK", "soluble on expression in E. coli": "not soluble"},
      {"sequence": "MSFALLMASGGLDSTTVAYWLTERGVQFIPVFFDYGQHCVETEWETLKEVLPASAAHPERNDISDLFRGSKSRLITEADLWNEEVKDEDLYVPYRTLLFYSAAAARAQTLGAFEVYTGFINSNRAKEIDCTAEFMNKLDALTDSVGPVRFLSPFRFWSKSEVAKESIRLGVPIGRTFSCQAASLMPCGACPNCVERLAALRETGLLA", "soluble on expression in E. coli": "not soluble"},
      {"sequence": "MDERRFFRDVCAEWMEQYRLTVRESTLEKTQRIINIHVLPAFGDMVINNITPNVCQKVVNKWFLEAKSYKKWLNYASMIFDYALRAEYVGRNPCTLVTMPRVQEQAGEKLEHHHHHH", "soluble on expression in E. coli": "not soluble"},
      {"sequence": "MSAEAVIENRDYTLMIDKSSSMATADDPNGPTRWEIAQASTIALAKKCEEIDSDGITVYLFSGRFRRYDNVTAEKVAYIYANNEPMGRTDLAGALKDGLDNFFQRRQAGQTKPNGETFLIITDGEPTDRKAVIRLILEASQKIDRDEELAISLIQVGRDKKATAFFQALDDQLQAAGAKFDIVDTVTMEDMQGMSLSDVLLKAITDLEHHHHHH", "soluble on expression in E. coli": "not soluble"},
      {"sequence": "MSTENAHLQKEDIVIESWLHKKGEHIRNWRPRYFILFRDGTLLGFRSKPKEDQPLPEPLNNFMIRDAATVCLDKPRPNMFIVRCLQWTTVIERTFYADSADFRQMWIEAIQAVSSHNRLKENAGNTSMQEEDTNGNPSGESDVNMDATSTRSDNDFESTVMNIDEPEEVPRKNTVTMDDFDFLKVLGQGTFGKVILCREKSSDKLYAIKIIRKEMVVDRSEVAHTLTENRVLYACVHPFLTLLKYSFQAQYHICFVMEFANGGELFTHLQRCKTFSEARTRFYGSEIILALGYLHHRNIVYRDMKLENLLLDRDGHIKITDFGLCKEEIKYGDKTSTFCGTPEYLAPEVIEDIDYDRSVDWWGVGVVMYEMMCGRLPFSAKENGKLFELITTCDLKFPNRLSPEAVTLLSGLLERVPAKRLGAGPDDAREVSRAEFFKDVDWEATLRKEVEPPFKPNVMSETDTSFFDRVRYVSILLKVSEAI", "soluble on expression in E. coli": "not soluble"},
      {"sequence": "MGLLKDLSSARDKIERIYGLNKEKLLLLAKVKEGFETSVFDFPFKNIQPDSPYFVCLDPPCKKESAYNKVIGDKNRTVYHEINKTEFENMIKLRTKRLKLLIGEVDAEVSTGDKIEFPVLANGKRRGFIYNVGGLVTDIAWLNIEENTDIGKDIQYLAVAVSQYMDEPLNEHLEMFDKEKHSSCIQIFKMNTSTLHCVKVQTIVHSFGEVWDLKWHEGCHAPHLVGCLSFVSQEGTINFLEIIDNATDVHVFKMCEKPSLTLSLADSLITTFDFLSPTTVVCGFKNGFVAEFDLTDPEVPSFYDQVHDSYILSVSTAYSDFEDTVVSTVAVDGYFYIFNPKDIATTKTTVSRFRGSNLVPVVYCPQIYSYIYSDGASSLRAVPSRAAFAVHPLVSRETTITAIGVSRLHPMVLAGSADGSLIITNAARRLLHGIKNSSATQKSLRLWKWDYSIKDDKYRIDSSYEVYPLTVNDVSKAKIDAHGINITCTKWNETSAGGKCYAFSNSAGLLTLEYLSLEHHHHHH", "soluble on expression in E. coli": "soluble"},
      {"sequence": "MNDHIHRVPALTEEEIDSVAIKTFERYALPSSSSVKRKGKGVTILWFRNDLRVLDNDALYKAWSSSDTILPVYCLDPRLFHTTHFFNFPKTGALRGGFLMECLVDLRKNLMKRGLNLLIRSGKPEEILPSLAKDFGARTVFAHKETCSEEVDVERLVNQGLKRVGNSTKLELIWGSTMYHKDDLPFDVFDLPDVYTQFRKSVEAKCSIRSSTRIPLSLGPTPSVDDWGDVPTLEKLGVEPQEVTRGMRFVGGESAGVGRVFEYFWKKDLLKVYKETRNGMLGPDYSTKFSPWLAFGCISPRFIYEEVQRYEKERVANNSTYWVLFELIWRDYFRFLSIKCGNSLFHLGGPRNVQGKWSQDQKLFESWRDAKTGYPLIDANMKELSTTGFMSNRGRQIVCSFLVRDMGLDWRMGAEWFETCLLDYDPCSNYGNWTYGAGVGNDPREDRYFSIPKQAQNYDPEGEYVAFWLQQLRRLPKEKRHWPGRLMYMDTVVPLKHGNGPMAGGSKSGGGFRGSHSGRRSRHNGP", "soluble on expression in E. coli": "soluble"},
      {"sequence": "MNISIRAETPGDIDAIAHLTEAAFRNETHSSHTEQYIVDALRRAGALTLSLVAEANGQVIGHIAASPVTIDGEAGDWYGLAPLSVAPGRQRQGLGSQLVRRLLTELRLLPAGGCVVLGEPTYYSRFGFRVESGLALPGVPAEYFQAQSFSGRMAQGIVAFHAAFDASG", "soluble on expression in E. coli": "not soluble"},
      {"sequence": "MGHHHHHHSHMANSAGSMANSAGSSWHNDHNFSVSKQPNLVVHNHTVTVPEGETVKGDVTVKNGKLIIKGKIDGDVTVVNGEKYMASAGQVTGQIEEINQLFDWTWYKMKSAGKSVLDAFNPNGEE", "soluble on expression in E. coli": "not soluble"},
      {"sequence": "MALIEYNPPLEPYLDIIYQDNHLCVVNKPSGLLSVPGNQPQYYDSAMSRVKEKFGFCEPAHRLDMATSGIIVFALSKAADRELKRQFREREPKKHYQAIVWGHLENDYGEVNLPMICDWENRPRQRLDFVLGKRAVTKFEVLARLPNNSTRVKLTPVTGRSHQLRLHMLALGHPILGDKFYSHPQAKVMSPRLCLHAEELTITHPITGETMTFNAKSDFLEHHHHHH", "soluble on expression in E. coli": "not soluble"},
      {"sequence": "MGSDKIHHHHHHMALKDIISQVYRRLFNVIATVCPVRKHVVLFEAFNGKVPMDNPLYVYEALQTAHPDWKLVWSVKRQLVVEAQEKYPKLNIIPRFSAKWLLVAPVAEFWVLNARMPYWLKKNAKTTYIQTWHGTPLKRLGIDIPKVSMPGTDTSQYRQNFTAESKRWDYLIAPNQFSKDVFRRAFDFNNQFLDYGYPRNDRLVHQRQDYDAIAAIKKRIVGNKMGKVILYAPTWRDDFFIRKGMYKMNLPFSLAAVVKRLNKEDVLIIRPHYLVAESINIQGFEDNVKLCVDEDINDLYLISDLLITDYSSVMFDYAILNRPMLFYPYDLAHYQGDVRGFYFDYNKVPGPIVTNEQDFLAKLDQFLTNDGYPNETAKMMAFRTQFTEWEQGTASQRVVKLITSIDQNANNYTG", "soluble on expression in E. coli": "not soluble"},
      {"sequence": "MKFYEEKIDSKRVFEGKMISVRVDRVRLPDGRESTREVVDHPGAVVIVPVLGGKILFVEQYRYPIEQVLLELPAGKLDPGESPEECAKRELEEETGYRAKKLSYLGKIFTTPGFTTEVIHIFAAEDLEKTSQNTDPDEFIEVKEVPIEEALSLLKNAEIEDSKTICALTRFFFAKGVIR", "soluble on expression in E. coli": "soluble"},
      {"sequence": "MIMEHEYRLEVRGYELDSFGHVNNAVYLNYLEAARWDLCSKLNLTDYNESNELFIVVIETNIKYIRELKLFDKVLIKTELTYEDDYLIFKHNIYNEVTKRKASVAKSKMVLVSKQRIIYEIPQFIKDKLDICAYGLEHHHHHH", "soluble on expression in E. coli": "not soluble"},
      {"sequence": "MYTKNFSNSRMEVKGNNGCSAPIIRKPFKHIVLTVPSSDLDNFNTVFYVQPQYINQALHLANAFQGAIDPLNLNFNFEKALQIANGIPNSAIVKTLNQSVIQQTVEISVMVEQLKKIIQEVLGLVINSTSFWNSVEATIKGTFTNLDTQIDEAWIFWHSLSAHNTSYYYNILFSIQNEDTGAVMAVLPLAFEVSVDVEKQKVLFFTIKDSARYEVKMKALTLVQALHSSNAPIVDIFNVNNYNLYHSNHKIIQNLNLSN", "soluble on expression in E. coli": "soluble"}
    ]}
  ]
}
